In one data set the target is T1, TK2268p (TK2268 protein) (Thermococcus kodakarensis, UniProt Q5JHU0).
T1 construct: full-length, C-terminal His6-tag, overexpressed homologously in T. kodakarensis, His GraviTrap and gel filtration
In words: initial velocity, HPLC after o-phthalaldehyde derivatization; substrate inhibition fit. Format: biochemical. The conditions noted are these: substrate inhibition constant, second site (second substrate binding to enzyme-substrate complex), 20 µM PLP, 50 mM HEPES pH 7.5, 80°C. An excerpt: (§1) initial velocity, HPLC after o-phthalaldehyde derivatization; substrate inhibition fit on TK2268p (TK2268 protein)

Substrate in data set [1]: O=C(O)CC(=O)C(=O)O
In words: purified protein. It counts as biochemical, Thermococcus kodakarensis. Particulars: amino acceptor, 4 mM glutamate, 20 µM PLP, 50 mM HEPES pH 7.5, 80°C, substrate inhibition model, Ks1 described as dissociation constant of first substrate.

Substrate in data set [2]: O=C(O)CCC(=O)C(=O)O
In words: initial velocity, HPLC after o-phthalaldehyde derivatization; substrate inhibition fit. It counts as biochemical, Thermococcus kodakarensis. The conditions noted are these: amino acceptor, 10 mM Asp, 20 µM PLP, 50 mM HEPES pH 7.5, 80°C, substrate inhibition model, Ks1 described as dissociation constant of first substrate.
From the text: as §1

Substrate in data set [3]: N[C@@H](CC(=O)O)C(=O)O
In words: purified protein. The conditions noted are these: amino donor, 10 mM 2-oxoglutarate, 20 µM PLP, 50 mM HEPES pH 7.5, 80°C.

Substrate in data set [4]: N[C@@H](CCC(=O)O)C(=O)O
In words: initial velocity, HPLC after o-phthalaldehyde derivatization. It counts as biochemical, Thermococcus kodakarensis. The conditions noted are these: amino donor, 10 mM oxaloacetate, 20 µM PLP, 50 mM HEPES pH 7.5, 80°C. An excerpt:
initial velocity, HPLC after o-phthalaldehyde derivatization on TK2268p (TK2268 protein)

This note sets out measurements from article PMC11921379, “TK2268 encodes the major aminotransferase involved in the conversion from oxaloacetic acid to aspartic acid in Thermococcus kodakarensis” (Applied and Environmental Microbiology, 2025).

Take `O=C(O)CCC(=O)C(=O)O` [2-OG, 2-oxoglutarate]: the Km (usually the substrate concentration at which the rate is half of its maximum) on TK2268p (TK2268 protein) (10 mM Asp) is recorded as 5.9 ± 1.6 mM.

Consider `O=C(O)CC(=O)C(=O)O` [OAA, oxaloacetate], for which the “Km” value on TK2268p (TK2268 protein) (4 mM glutamate) was 13.2 ± 1.2 mM.

B1: TK2268p (TK2268 protein) (Thermococcus kodakarensis KOD1) (protein)
chain: MRYKKRKYFMAGRINILQRSKIRELFEKASKMENVISLGIGEPDFDTPEVIKEAAKRAIDEGYTHYTPNAGIPEFREAIAEYYKEFYNVDVDMNNIIVTAGAYEATYLAFESILEQGDDVIIPDPAFVCYVEDAKIAEAGIIRIPLREENKFRIDPDELLEAITKRTRMIVMNYPNNPTGAIMKKDVAKAIADIAQDYNIYILSDEPYEHFLYEGARHHPMIKYAPDNTILANSFSKTFAMTGWRLGFAIAPEQVIRDMIKLHAYVIGNVTSFIQIAGITALRDKRSWEAVERMRQVYDERRKLVLKYLNDMPHITPFRPKGAFYIWAKIDPELDMTSEDFAEWLLENAGVVVIPGTAFGRQGEGWIRISYATEKEKLIEAMERMKEALSKL
notes: full-length, C-terminal His6-tag, overexpressed homologously in T. kodakarensis, His GraviTrap and gel filtration
Regarding B1, in “purified protein [1]”, the Km turned out to be 1.3 ± 0.1 mM; the Vmax (in general, the rate approached at saturating substrate) is 360 µmol/min/mg; the kcat (in general, the number of substrate molecules converted per active site and unit of time at saturation) was found to be 270 ± 16 s⁻¹; the kcat/Km (as a rule, the turnover number divided by the Michaelis constant) is 208000 M⁻¹ s⁻¹. Further, in data set [2], the Km is 38.8 ± 9.6 mM, the Vmax came to 1040 ± 230 µmol/min/mg, the kcat was determined as 781 ± 244 s⁻¹ and the kcat/Km is 20100 M⁻¹ s⁻¹. In addition, in the data set “purified protein [3]”, the Km was 10.3 ± 0.5 mM, the Vmax came out at 232 µmol/min/mg, the catalytic constant (kcat) came out at 175 s⁻¹ and the kcat/Km amounted to 17000 M⁻¹ s⁻¹. In data set [4], the Km was determined as 3.4 ± 0.3 mM, the Vmax was found to be 443 µmol/min/mg, the turnover number (kcat) was found to be 333 ± 12 s⁻¹ and the kcat/Km is 97800 M⁻¹ s⁻¹.
